Measured values published in FireProtDB.
Values joined by “and” are separate entries in the source; they are usually repeats but may differ in a detail not shown here. Equal entries are not always repeated.

Details: whole UniProt chain shown
[1] = Mus musculus, pH 4, 25 °C, GdnHCl, CD, Sodium acetate 10 mM, reversible: yes
[2] = Mus musculus, pH 4, 25 °C, Urea, CD, Sodium acetate 10 mM, reversible: yes
[3] = Mus musculus, pH 7.4, 25 °C, Urea, CD, Tris-HCl 10 mM, reversible: yes
[4] = Manduca sexta, pH 7, 25 °C, GdnHCl, CD, Potassium phosphate 50 mM, reversible: yes
[5] = Nitratidesulfovibrio vulgaris (strain DSM 19637 / Miyazaki F), pH 7, 20 °C, GdnHCl, CD, phosphate 0.1 M, reversible: yes
[6] = Momordica charantia, pH 7.5, 25 °C, GdnHCl, fluorescence, Tris-HCl 10 mM, NaCl 200 mM
[7] = Pseudomonas aeruginosa (strain ATCC 15692 / DSM 22644 / CIP 104116 / JCM 14847 / LMG 12228 / 1C / PRS 101 / PAO1), pH 7, 20 °C, GdnHCl, CD, phosphate 5 mM, reversible: yes
[8] = Pseudomonas aeruginosa (strain ATCC 15692 / DSM 22644 / CIP 104116 / JCM 14847 / LMG 12228 / 1C / PRS 101 / PAO1), pH 8, Thermal, DSC, Tris-HCl 10 mM, NaCl 200 mM, reversible: yes

B1: Interleukin-6 wild type, P08505 (protein)
chain: MKFLSARDFHPVAFLGLMLVTTTAFPTSQVRRGDFTEDTTPNRPVYTTSQVGGLITHVLWEIVEMRKELCNGNSDCMNNDDALAENNLKLPEIQRNDGCYQTGYNQEICLLKISSGLLEYHSYLEYMKNNLKDNKKDKARVLQRDTETLIHIFNQEVKDLHKIVLPTPISNALLTDKLESQKEWLRTKTIQFILKSLEEFLKVTLRSTRQT
[1]
  denaturant m value: 0.7 kcal/mol/M
  denaturant midpoint (higher = more stable): 2.7 M
  unfolding free energy: 1.8 kcal/mol
[2]
  denaturant m value: 1.9 kcal/mol/M
  denaturant midpoint (higher = more stable): 3.6 M
  unfolding free energy: 6.9 kcal/mol
Mus musculus, pH 4, 25 °C, Urea, CD, Sodium acetate 10 mM
  unfolding free energy: 6.8 kcal/mol
Mus musculus, pH 4, 25 °C, Urea, Fluorescence, sodium acetate 0.5 M
  unfolding free energy: 6 kcal/mol
[3]
  denaturant m value: 0.7 kcal/mol/M
  denaturant midpoint (higher = more stable): 4.8 M
  unfolding free energy: 3.4 kcal/mol

B2: Lipase B wild type, P41365 (protein)
chain: MKLLSLTGVAGVLATCVAATPLVKRLPSGSDPAFSQPKSVLDAGLTCQGASPSSVSKPILLVPGTGTTGPQSFDSNWIPLSTQLGYTPCWISPPPFMLNDTQVNTEYMVNAITALYAGSGNNKLPVLTWSQGGLVAQWGLTFFPSIRSKVDRLMAFAPDYKGTVLAGPLDALAVSAPSVWQQTTGSALTTALRNAGGLTQIVPTTNLYSATDEIVQPQVSNSPLDSSYLFNGKNVQAQAVCGPLFVIDHAGSLTSQFSYVVGRSALRSTTGQARSADYGITDCNPLPANDLTPEQKVAAAALLAPAAAAIVAGPKQNCEPDLMPYARPFAVGKRTCSGIVTP
Pseudozyma antarctica, pH 7, Thermal, CD, Tris-HCl 50 mM, reversible: No
  Tm: 57.7 °C
Pseudozyma antarctica, pH 7, Thermal, Differential Scanning Fluorimetry, HEPES 10mM
  Tm: 54.8 °C

B3: Apolipophorin-3 wild type, P13276 (protein)
chain: MAAKFVVVLAACVALSHSAMVRRDAPAGGNAFEEMEKHAKEFQKTFSEQFNSLVNSKNTQDFNKALKDGSDSVLQQLSAFSSSLQGAISDANGKAKEALEQARQNVEKTAEELRKAHPDVEKEANAFKDKLQAAVQTTVQESQKLAKEVASNMEETNKKLAPKIKQAYDDFVKHAEEVQKKLHEAATKQ
[4]
  denaturant m value: 3.65 kcal/mol/M
  denaturant midpoint (higher = more stable): 0.36 M
  unfolding free energy: 1.29 kcal/mol
Manduca sexta, pH 7, Thermal, CD, Potassium phosphate 50 mM, reversible: yes
  Tm: 52 °C

B4: Cytochrome c-553 wild type, P00120 (protein)
chain: MKRILVVMSICAALAFGVSAAMAADGAALYKSCVGCHGADGSKQAMGVGHAVKGQKADELFKKLKGYADGSYGGEKKAVMTNLVKRYSDEEMKAMADYMSKL
[5]
  denaturant m value: 2.49 kcal/mol/M and 2.75 kcal/mol/M
  denaturant midpoint (higher = more stable): 3.65 M and 3.91 M
  unfolding free energy: 9.08 kcal/mol and 10.8 kcal/mol

B5: Serine proteinase inhibitor IA-1 wild type, Q7M4T6 (protein)
chain: SAGKFIVIFKNDVSEDKIRETKDEVIAEGGTITNEYNMPGMKGFAGELTPQSLTKFQGLQGDLIDSIEEDGIVTTQ
Pleurotus ostreatus, pH 7, Thermal, CD, sodium phosphate 50 mM
  Tm: 59 °C

B6: cAMP-dependent protein kinase type I-beta regulatory subunit wild type, P12849 (protein)
chain: MASPSCFHSEDEDSLKGCEMYVQKHGIQQVLKECIVHLCVAKPDRPLRFLREHFEKLEKEENRQILARQKSNSQCDSHDEEISPTPPNPVVKARRRRGGVSAEVYTEEDAVSYVRKVIPKDYKTMTALAKAISKNVLFSHLDDNERSDIFDAMFPVTHIGGETVIQQGNEGDNFYVIDQGEVDVYVNGEWVTNISEGGSFGELALIYGTPRAATVKAKTDLKLWGIDRDSYRRILMGSTLRKRKMYEEFLSKVSILESLEKWERLTVADALEPVQFEDGEKIVVQGEPGDDFYIITEGTASVLQRRSPNEEYVEVGRLGPSDYFGEIALLLNRPRAATVVARGPLKCVKLDRPRFERVLGPCSEILKRNIQRYNSFISLTV
Mus musculus, pH 7, 23 °C, GdnHCl, Fluorescence, MOPS 5 mM, KCl 100 mM, reversible: yes
  unfolding free energy: 7.2 kcal/mol
Mus musculus, pH 7, 23 °C, Urea, Fluorescence, MOPS 5 mM, KCl 100 mM, reversible: yes
  unfolding free energy: 7 kcal/mol

B7: Ribonuclease MC wild type, P23540 (protein)
chain: FDSFWFVQQWPPAVCSFQKSGSCPGSGLRTFTIHGLWPQGSGTSLTNCPQGSPFDITKISHLQSQLNTLWPNVLRANNQQFWSHEWTKHGTCSESTFNQAAYFKLAVDMRNNYDIIGALRPHAAGPNGRTKSRQAIKGFLKAKFGKFPGLRCRTDPQTKVSYLVQVVACFAQDGSTLIDCTRDTCGANFIF
[6]
  denaturant midpoint (higher = more stable): 2.57 M
  unfolding free energy: 13.2 kcal/mol
Momordica charantia, pH 7.5, Thermal, CD, Tris-HCl 10 mM, NaCl 200 mM
  Tm: 64.4 °C

B8: Azurin wild type, P00282 (protein)
chain: MLRKLAAVSLLSLLSAPLLAAECSVDIQGNDQMQFNTNAITVDKSCKQFTVNLSHPGNLPKNVMGHNWVLSTAADMQGVVTDGMASGLDKDYLKPDDSRVIAHTKLIGSGEKDSVTFDVSKLKEGEQYMFFCTFPGHSALMKGTLTLK
[7]
  denaturant m value: 4.18 kcal/mol/M
  denaturant midpoint (higher = more stable): 1.7 M
  unfolding free energy: 6.96 kcal/mol
Pseudomonas aeruginosa (strain ATCC 15692 / DSM 22644 / CIP 104116 / JCM 14847 / LMG 12228 / 1C / PRS 101 / PAO1), pH 7.5, 40 °C, GdnHCl, Fluorescence, Tris Cl 2 mM, reversible: Yes
  unfolding free energy: 8.6 kcal/mol
[8]
  Tm: 62 °C
  unfolding enthalpy (calorimetric): 165 kcal/mol
